Values quoted from earlier work in patent US7630838B2, “Method for identifying agents that interact with beta-site APP cleaving enzyme (BACE)” (American Home Products Corporation, priority 2000, dated 2009).
Non-standard residues stand in square brackets, D forms with d. No end group written: not given here. Sta = CC(C)C[C@H](N)[C@@H](O)CC(=O)O

Target: β-secretase enzyme (Homo sapiens, UniProt P56817)
Details: stated in words only; no number given

β-secretase enzyme, sequence (P56817 46-501): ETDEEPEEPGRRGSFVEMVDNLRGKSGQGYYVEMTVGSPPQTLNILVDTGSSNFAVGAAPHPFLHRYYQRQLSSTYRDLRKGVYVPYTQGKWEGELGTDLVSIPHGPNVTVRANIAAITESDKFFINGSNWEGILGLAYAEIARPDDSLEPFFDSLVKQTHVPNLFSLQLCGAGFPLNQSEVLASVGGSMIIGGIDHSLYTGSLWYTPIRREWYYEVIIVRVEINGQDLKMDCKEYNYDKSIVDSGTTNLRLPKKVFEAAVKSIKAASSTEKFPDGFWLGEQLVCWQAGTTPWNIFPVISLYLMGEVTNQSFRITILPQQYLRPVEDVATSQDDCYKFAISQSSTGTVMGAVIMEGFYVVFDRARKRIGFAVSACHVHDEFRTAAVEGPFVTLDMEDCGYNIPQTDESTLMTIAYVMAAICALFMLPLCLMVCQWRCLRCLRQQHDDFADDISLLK

SER-GLU-VAL-ASN-Sta-VAL-ALA-GLU-PHE (SEVN[Sta]VAEF) [statine based inhibitor, based on the APP Swedish mutation]
inhibit the β-secretase enzyme (efficiency): nanomolar efficiency
